Experimental data from article doi:10.1101/2024.01.26.576347.

What was measured:
[1] = target: α-tubulin (human (endogenous in VTC-037 GSCs)) (UniProt P68363); assay: cellular thermal shift assay
[2] = target: β-tubulin (human (endogenous in VTC-001 and VTC-037 GSCs)) (UniProt P07437); assay: cellular thermal shift assay

Sequence of α-tubulin (human (endogenous in VTC-037 GSCs)) (P68363 whole entry): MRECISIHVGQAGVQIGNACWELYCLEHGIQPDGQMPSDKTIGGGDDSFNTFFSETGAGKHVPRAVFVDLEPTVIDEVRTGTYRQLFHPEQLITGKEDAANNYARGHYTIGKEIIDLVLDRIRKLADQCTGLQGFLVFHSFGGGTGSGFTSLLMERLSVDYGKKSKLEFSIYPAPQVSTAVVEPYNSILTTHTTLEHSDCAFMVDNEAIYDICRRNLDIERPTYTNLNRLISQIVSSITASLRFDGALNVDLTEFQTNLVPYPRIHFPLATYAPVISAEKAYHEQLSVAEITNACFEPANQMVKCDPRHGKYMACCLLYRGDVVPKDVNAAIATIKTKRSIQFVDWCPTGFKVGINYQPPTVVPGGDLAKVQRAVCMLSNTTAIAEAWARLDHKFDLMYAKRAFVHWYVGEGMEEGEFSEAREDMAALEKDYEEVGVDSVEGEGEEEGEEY

- EC50 [1]: 8.4 nM
- EC50 [2]: 7.9 nM
Substance: JM2 (juxtamembrane 2), Cx43 mimetic peptide (from UniProt P17302 231-245)
